Experimental findings from patent publication US20170137467A1 (CHROMOTEK, published 2017) are described below.

Common to all, as to test: library pulldown, LC-MS of supernatant; ratio vs GFP-Nb control (0=captured, 1=not captured)
Assay [1] has as its target T1, BC2T K4T (human).
T1 construct: position 4 library, row T
T1 peptide: Ac-PDRTAAVSHWQQ-NH2
The procedure, abridged: (§1)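 Unbound peptide left in supernatant after 1 h pulldown in PBS/0.01% CHAPS measured by reversed-phase LC-MS (8–30% eluent B gradient, 20 min).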

Assay [2] addresses T2, BC2T A5P (human).
T2 construct: position 5 library, row P
T2 peptide: Ac-PDRKPAVSHWQQ-NH2
The method, boiled down: as §1

Assay [3] concerns the target T3, BC2T A6T (human).
T3 construct: position 6 library (BC2TA6X), row T
T3 peptide: Ac-PDRKATVSHWQQ-NH2
The procedure, abridged:
as §1

In assay [4] the target is T4, BC2T K4C(Abu) (human, not fully specified (residue 4)).
T4 construct: position 4 library, row C(Abu) / C*
T4 peptide: Ac-PDRCAAVSHWQQ-NH2
The procedure, abridged:
as §1

Assay [5] addresses T5, BC2T A5N (human).
T5 construct: position 5 library, row N
T5 peptide: Ac-PDRKNAVSHWQQ-NH2
The procedure, abridged: as §1

The target of assay [6] is T6, BC2T R3W (human).
T6 construct: position 3 library (BC2TR3X), row W
T6 peptide: Ac-PDWKAAVSHWQQ-NH2
The method, boiled down: as §1

The target of assay [7] is T7, BC2T P1W (human).
T7 construct: position 1 library, row W
T7 peptide: Ac-WDRKAAVSHWQQ-NH2
The method, boiled down: as §1

The target of assay [8] is T8, BC2T A5Y (human).
T8 construct: position 5 library, row Y
T8 peptide: Ac-PDRKYAVSHWQQ-NH2
The procedure, abridged:
as §1

Assay [9] concerns the target T9, BC2T V7T (human).
T9 construct: position 7 library, row T
T9 peptide: Ac-PDRKAATSHWQQ-NH2
The method, boiled down: as §1

The target of assay [10] is T10, BC2T P1T (human).
T10 construct: position 1 library, row T
T10 peptide: Ac-TDRKAAVSHWQQ-NH2
The procedure, abridged:
as §1

The target in assay [11] is T11, BC2T A6R (human).
T11 construct: position 6 library (BC2TA6X), row R
T11 peptide: Ac-PDRKARVSHWQQ-NH2
The procedure, abridged:
as §1

The target in assay [12] is T12, BC2T V7Q (human).
T12 construct: position 7 library, row Q
T12 peptide: Ac-PDRKAAQSHWQQ-NH2
The method, boiled down:
as §1

Assay [13] deals with T13, BC2T A5R (human).
T13 construct: position 5 library, row R
T13 peptide: Ac-PDRKRAVSHWQQ-NH2
The method, boiled down: as §1

Assay [14] addresses T14, BC2T V7P (human).
T14 construct: position 7 library, row P
T14 peptide: Ac-PDRKAAPSHWQQ-NH2
The procedure, abridged: as §1

For assay [15], the target named is T15, BC2T D2Y (human).
T15 construct: position 2 library, row Y
T15 peptide: Ac-PYRKAAVSHWQQ-NH2
The procedure, abridged: as §1

The target in assay [16] is T16, BC2T V7R (human).
T16 construct: position 7 library, row R
T16 peptide: Ac-PDRKAARSHWQQ-NH2
The method, boiled down: as §1

Assay [17] addresses T17, BC2T A6S (human).
T17 construct: position 6 library (BC2TA6X), row S
T17 peptide: Ac-PDRKASVSHWQQ-NH2
The method, boiled down: as §1

For assay [18], the target named is T18, BC2T K4F (human).
T18 construct: position 4 library, row F
T18 peptide: Ac-PDRFAAVSHWQQ-NH2
The procedure, abridged: as §1

Assay [19] addresses T19, BC2T R3N (human).
T19 construct: position 3 library (BC2TR3X), row N
T19 peptide: Ac-PDNKAAVSHWQQ-NH2
The method, boiled down: as §1

The target in assay [20] is T20, BC2T D2R (human).
T20 construct: position 2 library, row R
T20 peptide: Ac-PRRKAAVSHWQQ-NH2
The procedure, abridged: as §1

For assay [21], the target named is T21, BC2T V7F (human).
T21 construct: position 7 library, row F
T21 peptide: Ac-PDRKAAFSHWQQ-NH2
The method, boiled down:
as §1

For assay [22], the target named is T22, BC2T P1Q (human).
T22 construct: position 1 library, row Q
T22 peptide: Ac-QDRKAAVSHWQQ-NH2
The method, boiled down:
as §1

B1: BC2 nanobody (BC2-Nb) (VHH)
VHH: QVQLVESGGGLVQPGGSLTLSCTASGFTLDHYDIGWFRQAPGKEREGVSCINNSDDDTYYADSVKGRFTIFMDNAKDTVYLQMNSLKPEDTAIYYCAEARGCKRGRYEYDFWGQGTQVTVSS
notes: immobilised on agarose/sepharose beads in this assay; also called BC2 nanotrap (immobilised form); not shown: C-terminal 6xHis-tag added by pHEN6 vector
As to B1, the ratio in assay [1] amounted to 0.2; in assay [2] it was 0.1; in assay [3] it was 0.2; in assay [4], 0.1; in assay [5], 0.3; in [6] it was 0.8. Moreover, the ratio in assay [7] amounted to 0.1; in [8], 0.1; in assay [9], 0.2; in [10] it was 0.5; in assay [11], 1.1; in assay [12] it was 0.4. For the same molecule, the ratio was 0.2 in [13]; 1 in assay [14]; 0.1 in assay [15]; 0.2 in assay [16]; 0.5 in assay [17]; 0.3 in assay [18]. Further, the ratio in assay [19] came out at 0.7; in [20], 0.1; in assay [21], 0.2; in [22] it was 0.6.

B2: BC2-NbR106S (VHH)
VHH: QVQLVESGGGLVQPGGSLTLSCTASGFTLDHYDIGWFRQAPGKEREGVSCINNSDDDTYYADSVKGRFTIFMDNAKDTVYLQMNSLKPEDTAIYYCAEARGCKRGSYEYDFWGQGTQVTVSS
notes: immobilised on beads in this assay; not shown: C-terminal 6xHis-tag added by pHEN6 vector
On to B2, for which the ratio in assay [1] was found to be 0.7; in [2] it was 0.4; in [3], 0.4; in [4], 0.3; in assay [5], 0.5; in assay [6] it was 1. The ratio in [7] is 0.3; in [8], 0.2; in assay [9], 0.3; in assay [10], 0.7; in assay [11], 0.7; in [12] it was 0.5. Besides, the ratio turned out to be 0.1 in [13]; 1 in assay [14]; 0.2 in [15]; 0.2 in assay [16]; 0.8 in assay [17]; 0.7 in assay [18]. In addition, the ratio in assay [19] was found to be 1; in [20] it was 0.2; in assay [21], 0.4; in [22], 0.7.
